From the nanobody polyreactivity screen of Harvey et al. (2022)

Assay: yeast display, Sf9 membrane polyspecificity reagent, FACS + sequencing; frameworks hold sequencing errors
Summary of the method: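 Nanobodies from a synthetic yeast display library (Saccharomyces cerevisiae BJ5465), induced 36–48 hours with galactose, were stained 1 hour at 4 °C with 10% biotinylated, detergent-solubilized Sf9 membrane reagent, enriched on streptavidin microbeads, then FACS-sorted. Anti-HA (expression) and streptavidin (reagent binding) fluorescence set low and high (top ~1%) gates. Polyreactivity labels come from the gate of origin. Genes were colony-PCR amplified, MiSeq 2 × 250 sequenced and filtered by CDR length.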

| Sequence | polyreactivity (PSR sort gate) |
| --- | --- |
| QVQLVESGGGLVQAGGSLRLSCAASGSIFGDNAMGWYRKAPGKERELVAGISSSGGRTYYADSVKGRFTISRDNAKNTVYLQMNSLKPEVTAVYYCAKEPGWGRRSTTAYDYCGQGTQVTVSS | low polyreactivity |
| QVQLVESGGGLVQAGGSLRLSCAASGSIFGDNAMGWYRQAPGKERELVARISSGGNTYYADSVKGRFSISRDNAMNTVYLQMNSLKPEDTAVYYCAAAIIVRYKKFPYYYWGQGTQVTVSS | high polyreactivity |
| QVQLVESGGGLVQAGGSLRLSCAASGSIFGDYAMGWYRQAPGKEREFVAGITRRGGRTYYADSVKGRFTISRDNAKNTVYLQMNSLKPEETAVYYCNAVYSSSLRSKYDYWGQGTQVTVSS | high polyreactivity |
| QVQLVESGGGLVQAGGSLRLSCAASGSIFGDYAMGWYRQAPGKERELVAAITSSGGITYYADSVKGRFTISRDNAKNTVYLQMNSLKPEDTAVYYCAAYGYGSNYRYTGYYYWGQGTQVTVSS | low polyreactivity |
| QVQLVESGGGLVQAGGSLRLSCAASGSIFGDYAMGWYRQAPGKERELVADISSGGSTTYADSVKGRFTISRDNAKNTVYLQMNSLKPEDTAVYYCNAERGVPYGYWGQGTQVTVSS | low polyreactivity |
| QVQLVESGGGLVQAGGSLRLSCAASGSIFGDYVLGWYRQAPGKERELVASISESTDSTYYADSVKGRFTISRDNAKNTVYLQMNSLKPEDTAVYYCATAYPEWAVWGYDYWGQGTQVTVSS | low polyreactivity |
| QVQLVESGGGLVQAGGSLRLSCAASGSIFGDYVMGWNRQAPGKERELVAAINRGGSTYYADSVKGRFTISRDNAKNTVYLQMNSLKPEDTAVYYCAAGYPSWYYGYPYDSWGQGSQVTVSS | low polyreactivity |
| QVQLVESGGGLVQAGGSLRLSCAASGSIFGENAMGWYRQAPGKERELVAAITWSGASTYYADSVKGRFTISRDNAKNTVYLQMNSLKPEETAVYYCNADRYVRYSTFDYWGQGTQVTVSS | high polyreactivity |
| QVQLVESGGGLVQAGGSLRLSCAASGSIFGEYAMGWYRQAPGKERELVAAINVNGGRTYYADSVKGRFTISRDNAKNTVYLQMNSLKPEDTAVYYCNARSYASYRQGNTYGSWGQGTQVTVSS | high polyreactivity |
| QVQLVESGGGLVQAGGSLRLSCAASGSIFGEYTMGWYRQAPGKERELVAAISWNGGITYYADSVKGRFTISRDNAKNTVYLQMNSLKPEDTAVYYCAAETYPWSLFTYYSWGQGSQVTVSS | low polyreactivity |
| QVQLVESGGGLVQAGGSLRLSCAASGSIFGFKVMGWYRQEPGKERELVAAITYSGGSTYYADSVKGRFTISRANAKNTVYIQMNSLKPEDTAVYYCAADTFTPYWWYSSLDEYWGQGTQVTVSS | high polyreactivity |
| QVQLVESGGGLVQAGGSLRLSCAASGSIFGFNAMGWYRPAPGKERELVAGITSGDRTNYADSVKGRFTISRDNAKNTVYLQMNSLKPEDTAVYYCAARKYVFFKMYYWGQGTQVTVSS | low polyreactivity |
| QVQLVESGGGLVQAGGSLRLSCAASGSIFGFNAMGWYRQAPGKERELVAAINNGGSTNYADSVKGRFTISRDNAKNTVYLQMNSLKPEDTAVYYCSARLNYIRRGYWGQGTQVTVSS | high polyreactivity |
| QVQLVESGGGLVQAGGSLRLSCAASGSIFGFYAMGLYIQEPGKERELVAAITSGDSTHYADSVKGRFTISRDNAKNTVYLQMNSLKPEDTAVYYCATEYLYVDFFIRYDYWGQGTQVTVSS | low polyreactivity |
| QVQLVESGGGLVQAGGSLRLSCAASGSIFGFYAMGWYRQAPGKERELVASISSSGDSTYYADSVKGRFTISRDNAKNTVYLQINSLKPEDTAVYYCAAVVYDIYGYEFDYWGQGTQVTVSS | low polyreactivity |
| QVQLVESGGGLVQAGGSLRLSCAASGSIFGGNAMGWYRQAPGKERELVAVISWSGGSTYYADSVKGRFTISRDNAKNTVYVQMNSLKPEDTAVYYCATSSVAEAKYVTEGTFDYWGQGTQVTVSS | low polyreactivity |
| QVQLVESGGGLVQAGGSLRLSCAASGSIFGGYAMGWYRPAPGKERELVAAIDESGGSTYYADSVKGRFTISRDNAKNTVYLQMNSLKPEDTAVYYCLVFRDDSGPGDYYYWGQGTQVTVSS | low polyreactivity |
| QVQLVESGGGLVQAGGSLRLSCAASGSIFGGYAMGWYRQAPGKERELVAAISKTGGTTYYADSVKGRFTISRDNAKNTVYLQMNSLKPEDTAVYYCNAPKRYSGSAYGYGYWGQGTQVTVSS | high polyreactivity |
| QVQLVESGGGLVQAGGSLRLSCAASGSIFGGYAMGWYRQAPGKERELVAAISRTGGRTYYADSVKGRFTISRDNAKNTVYLQMNSLKPEDTAVYYCAARVVHQSRYSYEYWGQGTQVTVSS | high polyreactivity |
| QVQLVESGGGLVQAGGSLRLSCAASGSIFGGYAMGWYRQAPGKERELVAAISSGGSTYYADSVKGRFTISRDNAKNTVYLQMNSLKPEDTAVYYCATSTFAYRRNSYYYTRPRFGYWGQGTQVTVSS | high polyreactivity |
| QVQLVESGGGLVQAGGSLRLSCAASGSIFGGYAMGWYRQAPGKERELVAAITSGGGSTYYADSVKGRFTISRDNAKNTVYLQMNSLKPEDTAVYYCAALQSHGVDYDYWGQGTQVTVSS | low polyreactivity |
| QVQLVESGGGLVQAGGSLRLSCAASGSIFGGYAMGWYRQAPGKERELVASITASGGSTYYADSVKGRFTISRDNAKNTVYLQMNSLKPEDTAVYYCAAEVFSGYDYDYWGQGTQVTVSS | low polyreactivity |

| Sequence | polyreactivity (PSR sort gate) |
| --- | --- |
| QVQLVESGGGLVQAGGSLRLSCAASGSIFGGYGMGWYRQAPGKERELVAAITSGSSTYYADSVTGRFTISRDNAKNTVYLQMNSLKPEDTAVYYCAARPYPHSAYEGDYWGRGTQVTVSS | low polyreactivity |
| QVQLVESGGGLVQAGGSLRLSCAASGSIFGGYGMGWYRQAPGKERELVAVITKRGGSTYYADSVKGRFTISRDNAKNTVYLQMNSLKPEDTAVYYCNKVGYYASVLGYDYWGQGTQVTVSS | high polyreactivity |
| QVQLVESGGGLVQAGGSLRLSCAASGSIFGGYTMGWYRQAPGKERELVAAISARGGNTYYADSVKGRFTISRDNAKNTVYLQMNSLKPEDTAVYYCAKVRYTQSYRGYGYWGQGTQVTVSS | high polyreactivity |
| QVQLVESGGGLVQAGGSLRLSCAASGSIFGHNTMGWYRQPPGKERELVAAITWNGGRTYYADSVKGRFTISRDNAKNTVYLQMNSLKPEDTAVYYCNAVVKTYGYKAHRYPSSRLNYWGQGTQVTVSS | high polyreactivity |
| QVQLVESGGGLVQAGGSLRLSCAASGSIFGHYAMGWYRQAPGKERELVAAISWSGTSTYYADSVKGRFTISRDNAKNTVYLQMNSLKPEDTAVYYCAAEASYNYGKYVVTYDYWGQGTQVTVSS | high polyreactivity |
| QVQLVESGGGLVQAGGSLRLSCAASGSIFGIYAMGWYRQAPGKERELVATITYSGGTTYADSVKGRFTISRDNAKNTVYLQMNSLNPEDTAVYYCAAGGDYAYDCWGQGTQVTVSS | low polyreactivity |
| QVQLVESGGGLVQAGGSLRLSCAASGSIFGKNAMGWYRQAPGKEREFVAAITNTGGDTYYADSVKGRFTISRDNAKNNVYLQMNSLKPEDTAVYYCNARKRKTSLYKFNYWGQGTQVTVSS | high polyreactivity |
| QVQLVESGGGLVQAGGSLRLSCAASGSIFGKYAMGWYRQAPGKERELVAAISWSGGSTYYADSVKGRFTISRDNAKNTVYLQMNSLKPEDTAVYYCAATFRGTFRRIWTDTRAYDYWGQGTQVTVSS | high polyreactivity |
| QVQLVESGGGLVQAGGSLRLSCAASGSIFGKYAMGWYRQAPGKERELVAAITGRGASTYYADSVKGRFTISRDNAKNTVYLQMNSLKPVDTAVYYCAARASWYYVYPYDYWGQGTQVTVSS | low polyreactivity |
| QVQLVESGGGLVQAGGSLRLSCAASGSIFGLNAMGWYRPAHGKETELVAAISGGSTNYADSVKGRFTISRDNAKNTVYLQMNSLKTDDTAVYYCAARARRRYYYWGQGTQVTVSS | high polyreactivity |
| QVQLVESGGGLVQAGGSLRLSCAASGSIFGLNAMGWYRPEPGQESALVAAISYSGGTTYYADSVKGRFTISRDNAKNSVYLQMNSLKPEDTAVYYCATRARYVGGYKYNYWGQGTQVTVSS | high polyreactivity |
| QVQLVESGGGLVQAGGSLRLSCAASGSIFGLNAMGWYRQAPGKERELVAAISCGSTNYADSVKGRFTISRDNAKYTVYLQMNSLKPEDTAVYYCAARARRRYYYWGQGTQVTVSS | high polyreactivity |
| QVQLVESGGGLVQAGGSLRLSCAASGSIFGLNAMGWYRQAPGKERELVARISTGSSTNYADSVKGRFTISRDHAKNSVYLQMNSLKPEDTAVYYCNADYPYYPYRENYWGQGTQVTVSS | low polyreactivity |
| QVQLVESGGGLVQAGGSLRLSCAASGSIFGLYAMGWYRQAPGIERALVAAITTTGGSTYYADSVKGRFTISRDNAKNTVYLQMNSLKPEDTAVYYCNADYVAYGPEYDYWGQGTQVTVSS | low polyreactivity |
| QVQLVESGGGLVQAGGSLRLSCAASGSIFGLYAMGWYRQAPGKERELVAAINQSGGSTSYADSVKGRFTISRDNAKNTVYLQMNSLKPEDTAVYYCAAKRSWGATRRAYGRYDYWGQGTQVTVSS | low polyreactivity |
| QVQLVESGGGLVQAGGSLRLSCAASGSIFGLYAMGWYRQAPGKERELVAAINQSGGSTSYADSVKGRFTISRDNAKNTVYLQMNSLKPEDTAVYYCNRVRLNTEGFDYWGQGTQVTVSS | low polyreactivity |
| QVQLVESGGGLVQAGGSLRLSCAASGSIFGNAMGWYRQAPGKERELVAAISRRGGRTYYADSVKGRFTISRDNAKNTVYLQMNSLKPEDTAVYYCNKYVTPWNEMDYWGQGTQVTVSS | high polyreactivity |
| QVQLVESGGGLVQAGGSLRLSCAASGSIFGPYAMGWYRQAPGKERELVAAITIGGDNTYYADSVKGRFTISRDNAKNTVYLQMNSLKPEDTAVYYCAAKYYCGKPHYYEYYYWGQGTQVTVSS | low polyreactivity |
| QVQLVESGGGLVQAGGSLRLSCAASGSIFGPYSMGWYRQAPGKERELVAAISWRGGTTRYADSVKGRFTISRDNAKNTVYLQMNSLKPEDTAVYYCNRTVYSKTQYDYDYWGQGTQVTVSS | high polyreactivity |
| QVQLVESGGGLVQAGGSLRLSCAASGSIFGQNAMGWYRQAPGKERELVAAITSGAGITYYADSVKGRFTISRDNAKNTVYLQMNSLKPEDTAVYYCNAVPSWTPSPLFDYWGLGTQVTVSS | low polyreactivity |
| QVQLVESGGGLVQAGGSLRLSCAASGSIFGRNTMGWYRQAPGKERELVAAISRSGGSTYYADSVKGRFTISRDNAKNTVYLQMNSLKPEDSAVYYCAARGKYDYSGVSFNYWGQGTQVTVSS | high polyreactivity |
